Some results are limits rather than exact numbers.

This assay addresses purified folded MHC-complex (Example 57). Briefly: sandwich ELISA, W6/32 coated, HRP anti-β2m detection, OD450.

As for “W6/32 mouse-anti-HLA-ABC antibody (Dako M0736)”, the OD450 ratio to the negative control β2m was greater than 6 fold.
